According to patent CN114106182A (ZHONGSHAN KANGFARE BIOLOGICAL MEDICINE CO LTD, dated 2022):

How the values were obtained:
human TIGIT-mFc [1] = target: T1, human TIGIT-mFc (human; mouse, UniProt Q495A1 22-141, limits assumed); assay: indirect ELISA screening of hybridomas on human TIGIT-mFc
T1 construct: Made in house (Akeso, lot 20171110); also called 人TIGIT-mFc; not shown: Fc fragment of mouse IgG (mFc)
T1 sequence (looked up): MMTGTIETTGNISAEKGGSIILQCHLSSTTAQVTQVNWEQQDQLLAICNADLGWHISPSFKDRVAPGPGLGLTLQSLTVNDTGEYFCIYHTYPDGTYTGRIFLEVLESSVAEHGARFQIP

human TIGIT-mFc [2] = target: T1, human TIGIT-mFc; assay: indirect ELISA, TIGIT-mFc captured by goat anti-mouse IgG Fc (Table 1 experiment)
human TIGIT-mFc [3] = target: T1, human TIGIT-mFc; assay: competition ELISA on coated TIGIT-mFc; competitor CD155-hFc-Biotin (Table 3 experiment)
human TIGIT-mFc [4] = target: T1, human TIGIT-mFc; assay: BLI (Fortebio), antibody on AHC sensor, TIGIT-mFc 0.62-50 nM, 1:1 fit, 37 degrees
[5] = target: T2, TIGIT antigen on the surface of 293T-TIGIT cells (human, UniProt Q495A1 22-244); assay: flow cytometry on 293T-TIGIT cells, FITC goat anti-human IgG
T2 construct: whole, on cells; also called Jurkat-TIGIT (TIGITFL)
T2 sequence (looked up): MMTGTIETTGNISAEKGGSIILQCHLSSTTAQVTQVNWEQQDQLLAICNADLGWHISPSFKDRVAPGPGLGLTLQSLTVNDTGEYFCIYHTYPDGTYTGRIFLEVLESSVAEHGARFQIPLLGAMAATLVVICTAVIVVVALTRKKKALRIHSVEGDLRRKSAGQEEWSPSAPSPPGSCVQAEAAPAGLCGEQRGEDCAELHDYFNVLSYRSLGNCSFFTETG

[6] = target: T2, TIGIT antigen on the surface of …; assay: FACS competition on 293T-TIGIT cells; competitor CD112-mG1Fc (30 nM)
[7] = target: T2, TIGIT antigen on the surface of …; assay: FACS competition on 293T-TIGIT cells; competitor CD155-mG1Fc (10 nM)
human TIGIT-mFc [8] = target: T1, human TIGIT-mFc; assay: indirect ELISA, TIGIT-mFc captured by goat anti-mouse IgG Fc (Table 2 experiment)
human TIGIT-mFc [9] = target: T1, human TIGIT-mFc; assay: competition ELISA on coated TIGIT-mFc; competitor CD155-hFc-Biotin (Table 4 experiment)

B1: 26B12 (antibody, V domains shown)
VH: EVQLQESGPGLVKPSQSLSLTCTVTGHSFTSDYAWNWIRQFPGNRLEWMGYISYSDSTNYNPSLKSRISITRDTSKNQFFLQMNSVTTEDTATYYCARLDYGNYGGAMDYWGQGTSVTVSS
VL: DIVLTQSHEFMSTSLRDRVSITCKSSQHVSTAVAWYQQKPGQSPKLLIYSASYRYTGVPDRFTGSGSGTDFTFTISSVKAEDLAVYYCQQHYITPWTFGGGTKLEIK
notes: Mouse monoclonal antibody from hybridoma; also called monoclonal antibody secreted by hybridoma LT019 (CCTCC NO: C2020208)
Question: Does B1 bind (human TIGIT-mFc [1])?
Answer: Result: binds

B2: BMS 22G2 (antibody, human IgG1, kappa, V domains shown)
VH: QVQLQESGPGLVKPSETLSLTCTVSGGSVSSGIYYWSWIRQPPGKGLEWIGYIYYSGSTNYNPSLKSRVTISVDTSKNQFSLKLSSVTAADTAVYYCARDYYVSGNYYNVDYYFFGVDVWGQGTTVTVSS
VL: EIVLTQSPATLSLSPGERATLSCRASQSVSSYLAWYQQKPGQAPRLLIYDASNRATGIPARFSGSGSGTDFTLTISSLEPEDFAVYYCQQRSNWPPLFTFGPGTKVDIKR
notes: Positive control anti-TIGIT antibody
Question: What does the source list for B2?
Answer: EC50 (human TIGIT-mFc [2]): 0.017 nM; EC50 (human TIGIT-mFc [3]): 0.513 nM

B3: BMS 22G2(G1DM) (antibody, V domains shown)
VH: B2 VH
VL: EIVLTQSPATLSLSPGERATLSCRASQSVSSYLAWYQQKPGQAPRLLIYDASNRATGIPARFSGSGSGTDFTLTISSLEPEDFAVYYCQQRSNWPPLFTFGPGTKVDIK
Question: B3 was tested. Which Kd (human TIGIT-mFc [4]) did it give?
Answer: The Kd was 0.628 nM.

B4: RG6058(G1DM) (antibody, human IgG1, kappa, L234A L235A, V domains shown)
VH: EVQLQQSGPGLVKPSQTLSLTCAISGDSVSSNSAAWNWIRQSPSRGLEWLGKTYYRFKWYSDYAVSVKGRITINPDTSKNQFSLQLNSVTPEDTAVFYCTRESTTYDLLAGPFDYWGQGTLVTVSS
VL: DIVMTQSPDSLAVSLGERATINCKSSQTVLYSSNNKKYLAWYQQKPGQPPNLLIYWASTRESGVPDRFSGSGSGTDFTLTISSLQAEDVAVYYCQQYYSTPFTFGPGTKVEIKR
notes: Positive control anti-TIGIT antibody (Tiragolumab variable regions, G1DM constant region)
Question: B4 was tested. Which EC50 [5] did it give?
Answer: The EC50 was 1.15 nM.

Question: And the EC50 [6]?
Answer: Its EC50 is 1.29 nM.

Question: What about the EC50 [7] of the same binder?
Answer: The EC50 was 1.22 nM.

Question: And the Kd (human TIGIT-mFc [4])?
Answer: Its Kd is 0.847 nM.

Question: And the EC50 (human TIGIT-mFc [8])?
Answer: Its EC50 is 0.017 nM.

Question: What about the EC50 (human TIGIT-mFc [9]) of the same binder?
Answer: Its EC50 is 0.425 nM.
